Assay results from US20180072806A1 (SHIRE HUMAN GENETIC THERAPIES, published 2018).

Key:
[1] = biological target: T1, recombinant human soluble Flt-1 (human, UniProt P17948 27-758); assay: human competition ELISA with human sFlt-1 and VEGF; blocked ligand VEGF; antibody titrated
T1 construct: Recombinant soluble form (immunogen bought from ABCAM); also called human sFlt-1; sFlt-1

[2] = biological target: T1, recombinant human soluble Flt-1; assay: VEGF:sFlt1 binding assay (competition ELISA); blocked ligand VEGF; antibody titrated

T1 sequence (P17948 27-758 limits assumed): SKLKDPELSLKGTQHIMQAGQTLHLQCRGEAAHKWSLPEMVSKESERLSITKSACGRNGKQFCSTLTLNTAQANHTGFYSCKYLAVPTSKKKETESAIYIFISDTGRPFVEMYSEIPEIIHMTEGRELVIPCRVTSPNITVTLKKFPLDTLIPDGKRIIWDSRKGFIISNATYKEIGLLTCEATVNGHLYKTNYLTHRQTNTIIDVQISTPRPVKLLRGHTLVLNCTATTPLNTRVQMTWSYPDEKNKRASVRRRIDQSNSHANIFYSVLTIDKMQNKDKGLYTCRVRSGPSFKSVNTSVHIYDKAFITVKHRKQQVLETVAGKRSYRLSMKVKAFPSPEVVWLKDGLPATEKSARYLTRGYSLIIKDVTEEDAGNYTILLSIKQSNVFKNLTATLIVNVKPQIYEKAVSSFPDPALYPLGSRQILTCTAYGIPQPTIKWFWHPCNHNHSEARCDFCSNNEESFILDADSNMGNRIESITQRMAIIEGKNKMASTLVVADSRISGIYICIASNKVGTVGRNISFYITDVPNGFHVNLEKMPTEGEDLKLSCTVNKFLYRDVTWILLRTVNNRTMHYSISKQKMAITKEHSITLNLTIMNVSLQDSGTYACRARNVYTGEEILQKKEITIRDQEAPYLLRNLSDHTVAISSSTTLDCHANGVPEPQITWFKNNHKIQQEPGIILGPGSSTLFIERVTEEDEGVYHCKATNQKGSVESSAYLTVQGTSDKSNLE

| IC50 (read off the curve) [1] [ng/mL] | IC50 (read off the curve) [2] [ng/mL] | Binder |
| --- | --- | --- |
| ~3 | – | anti-Flt-1 antibody 21B3 (antibody, V domains shown, VL is LC_21B3; IgG with wild-type Fc; also called 21B3 WT; clone 21B3) VH: ELQLVESGGGLVQPGGSLRLSCAASGFTFRDYSMSWVRQAPGKGLEWVSAISWNGDSTYYAESMKGRFTISRDNAKNTLYLQMNSLKSEDTAVYYCAKSWATPIESLYYYGMDYWGKGTLVTVSS VL: SYELTQSPSVSVALRQTAKITCGGNNIGSQTAQWYQQKPGQAPVLVIYANNRRPSGIPERFSGSKSGNTATLTISGAQAEDEADYYCQVWDGSTQAIVFGGGTHLTVL |
| – | ~10 | anti-Flt-1 antibody 27H9 (antibody, human IgG1, lambda, V domains shown, also called 27H9 WT; 27H9 WT 23/07) VH: EVQLLESGGGLVQPGGSLRLSCAASGFTFRDYSMSWVRQAPGKGLEWVSAISWNGDSTYYAESAKGRFTISRDNSKNTLYLQMNSLRAEDTAVYYCAKSWATPIESLYYYGSDYWGQGTLVTVSS VL: SYELTQPLSVSVALRQTARITCGGNNIGSQTAQWYQQKPGQAPVLVIYANNRRPSGIPERFSGSKSGNTATLTISRAQAEDEADYYCQVWDESTQAIVFGGGTKLTVLG |
| – | ~6 | anti-Flt-1 antibody 27H6 (antibody, human IgG1, lambda, V domains shown) VH: ELQLVESGGGLVQPGGSLRLSCAASGFTFSDYSASWVRQAPGKGLEWVSAISWSGDSTYYAESVKGRFTIFRDNSKNTLYLQMNSLRAEDTAVYYCAKSWATPIESLYYYGSDYWGQGTLVTVSS VL: SYELTQPLSVSVALRQAAKITCGGNNIGSQTAQWYQQKPGQAPVLVIYANNRRPSGIPERFSGSKSGNTATLTISRAQAGDEADYYCQVWDGSTQAIVFGGGTKLTVLG |
| – | ~10 | anti-Flt-1 antibody 27H4 (antibody, human IgG1, lambda, V domains shown) VH: ELQLVESGGGLVQPGGSLRLSCAASGFTFRDYSMSWVRQAPGKGLEWVSAISWNGDSTYYAESLKGRFTISRDNAKNTLYLQMNSLRAEDTAVYYCAKSWATPIESLYYYGSDYWGQGTLVTVSS VL: SYELTQPLSVSVALGQTARITCGGNNIGSQTAQWYQQKPGQAPVLVIYANNRRPSGIPERFSGSKSGNTATLTISRAQAEDEADYYCQVWEDSTQAIVFGGGTKLTVLG |
